{"source": "patent US6846636B1", "about": "“Methods and compositions for HDL holoparticle uptake receptor” (American National Red Cross, priority 1998, dated 2005)", "molecules": {"B1": {"name": "RAP: 39 kDa chaperone protein that inhibits ligand binding to LDLR family members; recombinant human RAP (protein, UniProt P30533 35-357, looked up)", "Alpha-2-macroglobulin …": "YSREKNQPKPSPKRESGEEFRMEKLNQLWEKAQRLHLPPVRLAELHADLKIQERDELAWKKLKLDGLDEDGEKEARLIRNLNVILAKYGLDGKKDARQVTSNSLSGTQEDGLDDPRLEKLWHKAKTSGKFSGEELDKLWREFLHHKEKVHEYNVLLETLSRTEEIHENVISPSDLSDIKGSVLHSRHTELKEKLRSINQGLDRLRRVSHQGYSTEAEFEEPRVIDLWDLAQSANLTDKELEAFREELKHFEAKIEKHNHYQKQLEIAHEKLRHAESVGDGERVSRSREKHALLEGRTKELGYTVKKHLQDLSGRISRARHNEL"}}, "key": {"[1]": {"tested_on": "RA/Bt2cAMP-treated F9 cells", "assay": "[125I]-HDL internalization and degradation assay", "type": "cell-based, mouse", "settings": "[125I]-HDL 2 μg/ml, 6.5 h at 37° C.; unlabeled HDL 80 μg/ml, RAP 1 μM, chloroquine 50 μM, anti-cubilin IgG 150 μg/ml", "method": "HDL internalization and degradation assays were performed in a manner similar to LDL and apolipoprotein J internalization and degradation assays described previously (Stefansson et al., 1995; Kounnas et al., 1995). ApoE-free HDL (HDL3) was labeled with [^125I]-iodine using the iodine monochloride method (Goldstein et al., 1983). RA/Bt2cAMP-treated and -untreated F9 cells were seeded onto gelatin-coated 3.83 cm^2 wells (Corning, Corning, N.Y.) at 1.5-1.75×10^5 cells/well and allowed to grow for 18 h at 37° C., 5% CO2. Prior to the addition of [^125I]-HDL, the cells were washed with serum-free DMEM and incubated in the assay medium (DMEM, 20 mM HEPES, ITS, penicillin/streptomycin, and 1.5% BSA) containing unlabeled HDL3 (80 μg/ml), RAP (1 μM), chloroquine (50 μM) (Sigma) or BSA (10 μM) and incubated for 0.5 hours at 37° C., 5% CO2. The medium was then removed and [^125I]-HDL3 (2 μg/ml) in serum-free medium or in serum-free medium containing unlabeled HDL3 (80 μg/ml), RAP (1 μM), chloroquine (50 μM) or BSA (10 μM) was added and incubated with the cells for 6.5 h at 37° C., 5% CO2. The conditioned culture medium was treated with trichloroacetic acid (final concentration 10%) and centrifuged at 10,000×g for 10 min. The amount of radioactivity present in the supernatant was taken to represent the amount of degraded HDL (Goldstein and Brown, 1974). […] The released cells were pelleted by centrifugation at 1,000×g for 15 min and the amount of radioactivity in the cell pellet measured.\nHDL internalization and degradation assays were performed as described previously for LDL and apolipoprotein J (Hammad et al., 1997; Kounnas et al., 1995; Stefansson et al., 1995a). […] The amount of radioactivity in the supernatant was taken to represent the amount of degraded HDL (Goldstein and Brown, 1974). […] The released cells were pelleted by centrifugation at 1,000×g for 15 min and the amount of radioactivity in the cell pellet was measured and taken to represent the amount of internalized HDL."}, "[2]": {"tested_on": "visceral yolk sac endoderm", "assay": "DiI-HDL uptake by mouse embryo yolk sac (ex utero culture, confocal microscopy)", "settings": "± S.D.; DiI-HDL 1 μg/ml 1 h; RAP, ovalbumin 1 μM; IgGs 400 μg/ml; p<0.01 vs control", "method": "Embryos (8-8.5 days post-conception) were removed from timed pregnant ICR mice (Harlan Sprague Dawley, Inc.) so as to leave visceral yolk sac endoderm intact and placed in DMEM. The embryos were then incubated in DMEM containing RAP (1 μM), ovalbumin (1 μM), rabbit anti-cubilin IgG (400 μg/ml) or normal rabbit IgG (400 μg/ml) for 0.5 h at 37° C., 5% CO2. DiI-HDL was added to a final concentration of (1 μg/ml) and incubated for 1 h at 37° C., 5% CO2. The medium was removed and the embryos gently washed with dPBS and fixed with 3% paraformaldehyde for 15 min. The fixed embryos were placed in dPBS, 0.1% azide in a well slide and examined by laser scanning confocal microscopy. The intensity of yolk sac fluorescence in mouse embryos incubated with DiI-HDL in the presence of either RAP, ovalbumin, anti-cubilin IgG or control IgG was evaluated by seven people in a double blinded fashion. The assessments of relative intensity were analyzed by a nonparametric statistical test using RANK and ANOVA procedures (SAS Institute, Inc., Cary, N.C.)."}}}
{"molecule": "B1", "values": [{"measurement": "degradation of [125I]-HDL", "setting": "[1]", "result": "inhibited the endocytosis and degradation"}, {"measurement": "internalization (endocytosis) of [125I]-HDL", "setting": "[1]", "result": "inhibited the endocytosis and degradation"}, {"measurement": "fluorescence intensity RANK score of DiI-HDL incorporation into extraembryonic endoderm", "setting": "[2]", "result": "9.77±0.22"}]}
